Positions count from the first letter of the chain named. Names may count otherwise. Values belong to the molecule of their own block, whether it stands above or below them.
What was measured:
[1] = format: binding; conditions: for fusion protein binding to heparin: pH 6
Description: 96-well plates were coated with 10 μg/mL of Heparin-BSA conjugate (provided by Dr. Mueller, Boerhinger Ingelheim) or control BSA for 18-22 hours at room temperature on shaker (350 rpm). After washing, wells are blocked with 2% milk powder in PBS-0.05% Tween 20 or PBS-0.05% Tween 20/1% BSA for 90 minutes. The fusion proteins were then titrated in either 2% milk powder in PBS-0.05% Tween 20 or 1% BSA/PBS-0.05% Tween 20, pH 7.5 and/or pH 6, and added for 2 hours at room temperature with shaking. After washing, an anti-mouse IL-2 biotin-labelled detection antibody (JES6-5H4, ThermoFisher), anti-6×-His Tag HRP conjugate antibody (Invitrogen, 1 mg/mL, cat #MA1-21315-HRP), or anti-human IgG HRP conjugate antibody (SouthernBiotech) was added, and binding was detected using Ultra Streptavidin HRP (ThermoFisher). The plate was developed by adding the chromogenic tetramethylbenzidine substrate (Ultra TMB, ThermoFisher). The reaction was stopped by addition of 0.5 M H2SO4, and the absorbance was read at 450-650 nm. […] Moreover, when the same pH-dependent heparin binding motif was inserted into different locations of IL-2 fusion proteins, all resulting proteins bound heparin at pH 6 with similar high affinities (FIGS. 4F and 4G). Likewise, similar binding affinities were observed when another heparin targeting sequence was engineered into different sites of IL-2 fusion proteins (FIGS. 4H-4I). […] The heparin binding activity is recovered when a heparin binding motif is engineered into the linker polypeptide-IL-15 fusion protein (Construct WWW). Finally, linker polypeptide-IL-2 fusion proteins engineered with a heparin binding site show about 30-fold enhanced binding to heparin in vitro compared to constructs lacking a heparin binding site (Construct EEE and Construct NNNN vs. Construct AAA and Construct NNN, respectively) as shown in FIG. 4M.

collagen = test: Collagen-agarose pulldown assay with IL-2 immunoblot; format: binding; conditions: for binding to collagen-agarose beads (pulldown): 18-22 hours at 4° C.
Description: To test binding to collagen, a pulldown assay using agarose cross-linked to collagen (Sigma) was performed. IL-2 fusion proteins were incubated with collagen-agarose or control agarose beads for 18-22 hours at 4° C. with gentle rotation in 1% BSA/PBS-0.05% Tween 20. After washing, proteins bound to the beads were eluted by resuspending beads in SDS sample buffer (Life Technologies). Bound proteins were then separated by SDS-PAGE on 4-12% BisTris gradient gel, followed by immunoblotting with goat anti-mouse IL-2 polyclonal antibody (AF-402-NA; R&D systems). Donkey anti-goat HRP-conjugated antibody was used for detection (Jackson Immuno Research, West Grove, PA), and the blot was developed using the SuperSignal West Femto Maximum sensitivity detection reagent (ThermoFisher) following the manufacturer's recommendations.

fibronectin = fibronectin (Homo sapiens, UniProt P02751); test: Fusion protein plate binding assay on fibronectin
Description: A similar plate-based assay was developed to interrogate binding of IL-2 fusion variants to fibronectin. 96-well plates were coated with fibronectin (4-10 μg/mL, Sigma) or control BSA for 18-22 hours at room temperature on shaker (350 rpm). After washing, wells were blocked with 2% milk powder in PBS-0.05% Tween 20 or protein-free blocking buffer (Pierce) for 90 min, then fusion proteins were titrated in blocking buffer-0.1% Tween 20, pH 7.5 and/or pH 6, and added for 1 hour at room temperature with shaking. After washing, an anti-mouse IL-2 biotin-labelled detection antibody (JES6-5H4, ThermoFisher) or anti-human IgG HRP conjugate antibody (SouthernBiotech) was added, and binding was detected using Ultra Streptavidin HRP (ThermoFisher). The plate was developed by adding the chromogenic tetramethylbenzidine substrate (Ultra TMB, ThermoFisher). The reaction was stopped by addition of 0.5 M H2SO4, and the absorbance was read at 450-650 nm.

fibronectin, sequence (P02751 32-2477, species assumed): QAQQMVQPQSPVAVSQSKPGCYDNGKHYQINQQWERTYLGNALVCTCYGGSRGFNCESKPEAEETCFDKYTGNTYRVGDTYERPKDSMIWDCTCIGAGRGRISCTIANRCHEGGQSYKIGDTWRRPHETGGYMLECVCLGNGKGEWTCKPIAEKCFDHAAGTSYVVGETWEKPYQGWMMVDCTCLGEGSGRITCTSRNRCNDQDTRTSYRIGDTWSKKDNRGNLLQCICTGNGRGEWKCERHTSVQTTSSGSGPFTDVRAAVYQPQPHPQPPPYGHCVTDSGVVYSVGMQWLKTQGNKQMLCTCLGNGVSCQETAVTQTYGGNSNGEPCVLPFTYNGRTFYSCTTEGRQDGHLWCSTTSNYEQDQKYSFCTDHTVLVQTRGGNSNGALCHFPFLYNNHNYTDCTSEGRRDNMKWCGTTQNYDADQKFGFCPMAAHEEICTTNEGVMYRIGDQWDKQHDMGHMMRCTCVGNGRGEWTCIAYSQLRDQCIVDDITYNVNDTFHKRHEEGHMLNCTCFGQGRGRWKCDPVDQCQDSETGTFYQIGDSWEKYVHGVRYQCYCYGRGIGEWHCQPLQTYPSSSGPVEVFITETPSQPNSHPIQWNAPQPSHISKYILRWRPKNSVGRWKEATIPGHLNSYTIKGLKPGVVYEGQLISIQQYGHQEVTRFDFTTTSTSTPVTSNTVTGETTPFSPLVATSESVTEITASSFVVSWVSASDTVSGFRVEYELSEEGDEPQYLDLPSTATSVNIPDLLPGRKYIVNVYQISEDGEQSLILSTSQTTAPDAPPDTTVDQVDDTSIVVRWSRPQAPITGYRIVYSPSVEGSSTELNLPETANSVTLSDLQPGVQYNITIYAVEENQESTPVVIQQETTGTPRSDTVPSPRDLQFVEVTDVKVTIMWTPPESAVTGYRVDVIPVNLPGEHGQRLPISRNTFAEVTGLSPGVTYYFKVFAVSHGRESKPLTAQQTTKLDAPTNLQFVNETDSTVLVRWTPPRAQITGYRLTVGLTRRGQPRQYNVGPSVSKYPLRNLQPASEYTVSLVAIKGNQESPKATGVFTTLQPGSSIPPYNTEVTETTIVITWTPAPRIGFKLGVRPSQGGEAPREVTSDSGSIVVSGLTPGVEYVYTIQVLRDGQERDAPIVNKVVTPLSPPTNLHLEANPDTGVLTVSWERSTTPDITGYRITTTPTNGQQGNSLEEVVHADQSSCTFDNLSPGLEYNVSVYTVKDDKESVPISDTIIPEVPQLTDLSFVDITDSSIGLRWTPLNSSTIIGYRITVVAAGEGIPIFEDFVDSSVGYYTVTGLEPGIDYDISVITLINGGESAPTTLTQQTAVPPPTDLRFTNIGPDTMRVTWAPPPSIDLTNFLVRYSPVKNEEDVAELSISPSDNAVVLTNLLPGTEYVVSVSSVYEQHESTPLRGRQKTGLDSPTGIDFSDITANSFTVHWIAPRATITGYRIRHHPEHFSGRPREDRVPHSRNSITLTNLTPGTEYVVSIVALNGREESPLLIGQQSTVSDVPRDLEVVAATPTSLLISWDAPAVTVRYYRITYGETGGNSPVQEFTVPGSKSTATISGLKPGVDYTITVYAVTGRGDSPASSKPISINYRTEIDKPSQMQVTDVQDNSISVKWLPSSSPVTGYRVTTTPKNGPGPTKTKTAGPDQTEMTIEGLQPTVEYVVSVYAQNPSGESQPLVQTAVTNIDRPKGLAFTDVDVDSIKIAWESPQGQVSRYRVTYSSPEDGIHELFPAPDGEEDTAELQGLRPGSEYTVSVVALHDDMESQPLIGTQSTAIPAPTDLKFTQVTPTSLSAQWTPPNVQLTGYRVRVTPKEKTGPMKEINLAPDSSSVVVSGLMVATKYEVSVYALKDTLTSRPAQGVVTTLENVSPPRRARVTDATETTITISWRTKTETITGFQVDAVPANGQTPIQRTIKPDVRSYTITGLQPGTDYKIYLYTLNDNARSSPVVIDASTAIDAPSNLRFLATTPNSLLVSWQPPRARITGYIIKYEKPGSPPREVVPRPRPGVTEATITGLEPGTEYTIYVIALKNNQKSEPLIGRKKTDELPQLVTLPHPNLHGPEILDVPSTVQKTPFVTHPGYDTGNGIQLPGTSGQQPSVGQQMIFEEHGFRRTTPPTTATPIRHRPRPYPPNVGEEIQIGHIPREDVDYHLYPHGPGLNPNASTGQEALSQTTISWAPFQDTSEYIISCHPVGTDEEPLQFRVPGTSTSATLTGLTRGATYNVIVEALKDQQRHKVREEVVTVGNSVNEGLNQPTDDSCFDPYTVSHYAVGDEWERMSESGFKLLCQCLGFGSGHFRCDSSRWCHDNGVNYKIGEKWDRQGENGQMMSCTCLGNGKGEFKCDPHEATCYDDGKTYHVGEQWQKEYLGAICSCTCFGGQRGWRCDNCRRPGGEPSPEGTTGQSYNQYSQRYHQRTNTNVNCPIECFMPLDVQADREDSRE

EC50 ([1]; acidic pH, read-out: heparin binding EC50): ~10 nM
B1: Construct CC: mIL2-2x(GHHPH)-MMPcs1-2x(G4S)-mIL2Ra(1-215)-muIgG1Fc; pH heparin (protein)
chain: APTSSSTSSSTAEAQQQQQQQQQQQQHLEQLLMDLQELLSRMENYRNLKLPRMLTFKFYLPKQATELKDLQCLEDELGPLRHVLDLTQSKSFQLEDAENFISNIRVTVVKLKGSDNTFECQFDDESATVVDFLRRWIAFCQSIISTSPQGHHPHGHHPHGPLGVRGGGGGSGGGGSELCLYDPPEVPNATFKALSYKNGTILNCECKRGFRRLKELVYMRCLGNSWSSNCQCTSNSHDKSRKQVTAQLEHQKEQQTTTDMQKPTQSMHQENLTGHCREPPPWKHEDSKRIYHFVEGQSVHYECIPGYKALQRGPAISICKMKCGKTGWTQPQLTCVDEREHHRFLASEESQGSRNSSPESETSCPITTTDFPQPTETTAMTETFVLTMEYKGCKPCICTVPEVSSVFIFPPKPKDVLTITLTPKVTCVVVDISKDDPEVQFSWFVDDVEVHTAQTQPREEQFNSTFRSVSELPIMHQDWLNGKEFKCRVNSAAFPAPIEKTISKTKGRPKAPQVYTIPPPKEQMAKDKVSLTCMITDFFPEDITVEWQWNGQPAENYKNTQPIMDTDGSYFVYSKLNVQKSNWEAGNTFTCSVLHEGLHNHHTEKSLSHSPGK
modifications: Synthetic: Construct CC
notes: mIL2-2x(GHHPH)-MMPcs1-2x(G4S)-mIL2Ra(1-215)-muIgG1Fc; pH heparin
fusion protein binding to heparin [1]: bound heparin in a dose-dependent manner and with higher affinity than Construct B | pH preference of heparin binding ([1]; pH 6 vs pH 7.5): preferentially bound heparin at acidic pH

binding to collagen-agarose beads (pulldown) (collagen): specifically bound
B2: Construct II: mIL2-LHERHLNNN-MMPcs1-2x(G4S)-mIL2Ra(1-215)-muIgG1Fc; collagen I (protein)
chain: B1 chain with G150S, H151L, P153E, H154R, G155H, H156L, H157N, P158N, H159N
modifications: Synthetic: Construct II
notes: mIL2-…-MMPcs1-2x(G4S)-mIL2Ra(1-215)-muIgG1Fc; collagen I

binding to collagen-agarose beads (pulldown) (collagen): specifically bound
B3: Construct GG: mIL2-SGG-KLWVLPK-MMPcs1-2x(G4S)-mIL2Ra(1-215)-muIgG1Fc; collagen IV (protein)
chain: B1 chain with G150S, H151G, H152G, P153K, H154L, G155W, H156V, H157L, H159K
modifications: Synthetic: Construct GG
notes: mIL2-SGG-KLWVLPK-MMPcs1-2x(G4S)-mIL2Ra(1-215)-muIgG1Fc; collagen IV
fraction bound, fold higher than the fraction of bound Construct B (collagen; blot quantitation): 2.5 fold

fusion protein binding to fibronectin (fibronectin; acidic pH (pH 6)): dose-dependent binding | fusion protein binding to fibronectin (fibronectin; pH 7.5 (neutral)): no binding
B4: Construct EE: mIL2-SGG-GGWSHW-MMPcs1-2x(G4S)-mIL2Ra(1-215)-muIgG1Fc; pH fibronectin (protein)
chain: APTSSSTSSSTAEAQQQQQQQQQQQQHLEQLLMDLQELLSRMENYRNLKLPRMLTFKFYLPKQATELKDLQCLEDELGPLRHVLDLTQSKSFQLEDAENFISNIRVTVVKLKGSDNTFECQFDDESATVVDFLRRWIAFCQSIISTSPQSGGGGWSHWGPLGVRGGGGGSGGGGSELCLYDPPEVPNATFKALSYKNGTILNCECKRGFRRLKELVYMRCLGNSWSSNCQCTSNSHDKSRKQVTAQLEHQKEQQTTTDMQKPTQSMHQENLTGHCREPPPWKHEDSKRIYHFVEGQSVHYECIPGYKALQRGPAISICKMKCGKTGWTQPQLTCVDEREHHRFLASEESQGSRNSSPESETSCPITTTDFPQPTETTAMTETFVLTMEYKGCKPCICTVPEVSSVFIFPPKPKDVLTITLTPKVTCVVVDISKDDPEVQFSWFVDDVEVHTAQTQPREEQFNSTFRSVSELPIMHQDWLNGKEFKCRVNSAAFPAPIEKTISKTKGRPKAPQVYTIPPPKEQMAKDKVSLTCMITDFFPEDITVEWQWNGQPAENYKNTQPIMDTDGSYFVYSKLNVQKSNWEAGNTFTCSVLHEGLHNHHTEKSLSHSPGK
modifications: Synthetic: Construct EE
notes: mIL2-SGG-GGWSHW-MMPcs1-2x(G4S)-mIL2Ra(1-215)-muIgG1Fc; pH fibronectin

B5: Construct NN: mIL2-2x(SG4)-MMPcs1-2x(GHHPH)-mIL2Ra(1-215)-muIgG1Fc; pH heparin (protein)
chain: APTSSSTSSSTAEAQQQQQQQQQQQQHLEQLLMDLQELLSRMENYRNLKLPRMLTFKFYLPKQATELKDLQCLEDELGPLRHVLDLTQSKSFQLEDAENFISNIRVTVVKLKGSDNTFECQFDDESATVVDFLRRWIAFCQSIISTSPQSGGGGSGGGGGPLGVRGGHHPHGHHPHELCLYDPPEVPNATFKALSYKNGTILNCECKRGFRRLKELVYMRCLGNSWSSNCQCTSNSHDKSRKQVTAQLEHQKEQQTTTDMQKPTQSMHQENLTGHCREPPPWKHEDSKRIYHFVEGQSVHYECIPGYKALQRGPAISICKMKCGKTGWTQPQLTCVDEREHHRFLASEESQGSRNSSPESETSCPITTTDFPQPTETTAMTETFVLTMEYKGCKPCICTVPEVSSVFIFPPKPKDVLTITLTPKVTCVVVDISKDDPEVQFSWFVDDVEVHTAQTQPREEQFNSTFRSVSELPIMHQDWLNGKEFKCRVNSAAFPAPIEKTISKTKGRPKAPQVYTIPPPKEQMAKDKVSLTCMITDFFPEDITVEWQWNGQPAENYKNTQPIMDTDGSYFVYSKLNVQKSNWEAGNTFTCSVLHEGLHNHHTEKSLSHSPGK
modifications: Synthetic: Construct NN
notes: mIL2-2x(SG4)-MMPcs1-2x(GHHPH)-mIL2Ra(1-215)-muIgG1Fc; pH heparin
fusion protein binding to heparin [1]: mimicked the Construct CC binding profile

heparin binding EC50 value, fold higher than Construct CC [1]: greater than 100 fold | fusion protein binding to fibronectin (fibronectin; acidic pH (pH 6)): No significant binding | fusion protein binding to fibronectin (fibronectin; pH 7.5 (neutral)): No significant binding
B6: Construct B: mIL2-2x(SG4)-MMPcs1-2x(G4S)-mIL2Ralpha(1-215)-mIgG1Fc; no TME (protein)
chain: B5 chain with H168G, H169G, P170G, H171S, H173G, H174G, P175G, H176S
modifications: Synthetic: Construct B polypeptide sequence: m IL2-2x(SG4) MMPcs1 2x (G4S) IL2Ralpha mIgG1 Fc
notes: mIL2-2x(SG4)-MMPcs1-2x(G4S)-mIL2Ralpha(1-215)-mIgG1Fc; no TME
fusion protein binding to heparin [1]: much weaker

B7: Construct Y: mIL2(C140S)-VRIQRKKEKMKET-MMPcs1-2x(G4S)-mIL2Ra(1-215)-muIgG1Fc; heparin (protein)
chain: APTSSSTSSSTAEAQQQQQQQQQQQQHLEQLLMDLQELLSRMENYRNLKLPRMLTFKFYLPKQATELKDLQCLEDELGPLRHVLDLTQSKSFQLEDAENFISNIRVTVVKLKGSDNTFECQFDDESATVVDFLRRWIAFSQSIISTSPQVRIQRKKEKMKETGPLGVRGGGGGSGGGGSELCLYDPPEVPNATFKALSYKNGTILNCECKRGFRRLKELVYMRCLGNSWSSNCQCTSNSHDKSRKQVTAQLEHQKEQQTTTDMQKPTQSMHQENLTGHCREPPPWKHEDSKRIYHFVEGQSVHYECIPGYKALQRGPAISICKMKCGKTGWTQPQLTCVDEREHHRFLASEESQGSRNSSPESETSCPITTTDFPQPTETTAMTETFVLTMEYKIEGRMDGCKPCICTVPEVSSVFIFPPKPKDVLTITLTPKVTCVVVDISKDDPEVQFSWFVDDVEVHTAQTQPREEQFNSTFRSVSELPIMHQDWLNGKEFKCRVNSAAFPAPIEKTISKTKGRPKAPQVYTIPPPKEQMAKDKVSLTCMITDFFPEDITVEWQWNGQPAENYKNTQPIMDTDGSYFVYSKLNVQKSNWEAGNTFTCSVLHEGLHNHHTEKSLSHSPGK
modifications: Synthetic: Construct Y
notes: mIL2(C140S)-…-MMPcs1-2x(G4S)-mIL2Ra(1-215)-muIgG1Fc; heparin
fusion protein binding to heparin [1]: bound heparin in a dose-dependent manner and with higher affinity than Construct B

From patent US20240417437A1, “Linker Polypeptides” (Trutino Biosciences Inc., priority 2021, published 2024)
